From paper PMC11695638
Where “and” joins values, the source holds several entries; their conditions need not be identical. Equal values may be shown once.

Key:
[1] = target: asialoglycoprotein receptor 1 (ASGR1, P01) (UniProt P07306); assay: SPR; Biacore T200, 25°C, HBS-EP+ with 8 mM CaCl2; LRP-1 (approx. 1300 RU), ASGR1 (approx. 1500 RU) and MRC1 (approx. 13,000 RU) amine-coupled to parallel flow cells of CM5; Metalyse (88, 53, 32 μg/mL) and Mingfule (53, 32, 19 μg/mL) injected at 30 μL/min for 240 s, 150 s dissociation; sensorgram comparison gives a similarity score
[2] = target: mannose receptor C, type 1 (MRC1) (UniProt P22897); assay: as above
[3] = target: recombinant low-density lipoprotein receptor-related protein 1 (LRP-1) Cluster IV; assay: as above
[4] = target: fibrin (immobilised human plasma fibrinogen cross-linked on the chip with thrombin and coagulation factor XIII) (human) (UniProt P02671); assay: SPR; Biacore T200, 25°C, HBS-EP+; fibrinogen amine-coupled to CM5 (aim 12,000 RU) and cross-linked with thrombin and factor XIII; tenecteplase injected at 2, 3 and 4 μg/mL, 5 μL/min, 120 s contact and 120 s dissociation; sensorgram comparison against a corridor (average ± 3 SD, normalised) of three Metalyse lots gives a similarity score
UniProt P02671, sequence (P02671 36-866, chain 1 of 3): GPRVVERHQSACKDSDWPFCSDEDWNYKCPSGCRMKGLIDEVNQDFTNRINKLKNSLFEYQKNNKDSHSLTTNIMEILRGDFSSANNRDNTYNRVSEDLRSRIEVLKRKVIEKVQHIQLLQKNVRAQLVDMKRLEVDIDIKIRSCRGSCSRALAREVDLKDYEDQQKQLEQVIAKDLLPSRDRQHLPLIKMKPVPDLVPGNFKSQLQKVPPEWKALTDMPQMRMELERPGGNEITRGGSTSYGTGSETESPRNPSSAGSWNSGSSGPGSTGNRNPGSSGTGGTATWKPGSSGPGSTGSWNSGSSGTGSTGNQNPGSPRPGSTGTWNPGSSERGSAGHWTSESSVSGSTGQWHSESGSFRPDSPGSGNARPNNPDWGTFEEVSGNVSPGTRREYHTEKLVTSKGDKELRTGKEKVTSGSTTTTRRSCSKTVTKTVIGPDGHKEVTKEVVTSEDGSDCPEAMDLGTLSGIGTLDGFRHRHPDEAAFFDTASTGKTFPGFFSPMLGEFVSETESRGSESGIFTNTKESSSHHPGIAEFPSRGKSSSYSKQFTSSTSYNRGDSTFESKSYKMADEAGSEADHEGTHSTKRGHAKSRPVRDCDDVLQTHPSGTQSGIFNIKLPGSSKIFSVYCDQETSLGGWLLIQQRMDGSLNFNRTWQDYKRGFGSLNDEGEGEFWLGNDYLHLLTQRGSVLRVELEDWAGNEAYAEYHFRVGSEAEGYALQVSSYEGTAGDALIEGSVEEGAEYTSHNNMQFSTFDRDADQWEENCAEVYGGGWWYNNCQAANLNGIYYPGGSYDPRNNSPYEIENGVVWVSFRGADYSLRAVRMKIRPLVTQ
UniProt P02671, sequence (P02675 45-491, chain 2 of 3, further chain): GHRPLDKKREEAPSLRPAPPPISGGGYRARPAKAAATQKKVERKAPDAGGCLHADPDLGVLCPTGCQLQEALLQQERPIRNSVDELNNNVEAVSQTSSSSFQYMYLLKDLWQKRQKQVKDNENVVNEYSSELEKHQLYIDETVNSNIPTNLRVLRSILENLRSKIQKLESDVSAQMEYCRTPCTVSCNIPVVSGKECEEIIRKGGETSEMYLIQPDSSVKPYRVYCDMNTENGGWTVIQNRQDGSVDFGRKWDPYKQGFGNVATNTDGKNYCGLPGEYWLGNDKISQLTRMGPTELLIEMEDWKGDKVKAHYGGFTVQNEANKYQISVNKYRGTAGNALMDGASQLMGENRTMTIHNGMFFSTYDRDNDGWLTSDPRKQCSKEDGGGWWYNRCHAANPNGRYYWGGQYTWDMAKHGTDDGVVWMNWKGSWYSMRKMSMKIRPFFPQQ
UniProt P02671, sequence (P02679 27-453, chain 3 of 3, further chain): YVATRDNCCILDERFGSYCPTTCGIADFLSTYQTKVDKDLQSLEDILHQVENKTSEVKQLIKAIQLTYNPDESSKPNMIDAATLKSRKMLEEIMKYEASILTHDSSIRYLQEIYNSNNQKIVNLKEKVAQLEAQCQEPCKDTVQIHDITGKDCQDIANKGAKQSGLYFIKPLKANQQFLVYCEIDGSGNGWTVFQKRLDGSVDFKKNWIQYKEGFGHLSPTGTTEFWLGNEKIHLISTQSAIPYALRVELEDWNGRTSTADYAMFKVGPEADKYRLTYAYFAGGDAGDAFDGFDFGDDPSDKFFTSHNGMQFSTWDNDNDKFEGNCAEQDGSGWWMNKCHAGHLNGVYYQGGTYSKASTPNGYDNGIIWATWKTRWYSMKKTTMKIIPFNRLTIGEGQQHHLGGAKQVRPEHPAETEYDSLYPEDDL

UniProt P22897, sequence (P22897 19-1389): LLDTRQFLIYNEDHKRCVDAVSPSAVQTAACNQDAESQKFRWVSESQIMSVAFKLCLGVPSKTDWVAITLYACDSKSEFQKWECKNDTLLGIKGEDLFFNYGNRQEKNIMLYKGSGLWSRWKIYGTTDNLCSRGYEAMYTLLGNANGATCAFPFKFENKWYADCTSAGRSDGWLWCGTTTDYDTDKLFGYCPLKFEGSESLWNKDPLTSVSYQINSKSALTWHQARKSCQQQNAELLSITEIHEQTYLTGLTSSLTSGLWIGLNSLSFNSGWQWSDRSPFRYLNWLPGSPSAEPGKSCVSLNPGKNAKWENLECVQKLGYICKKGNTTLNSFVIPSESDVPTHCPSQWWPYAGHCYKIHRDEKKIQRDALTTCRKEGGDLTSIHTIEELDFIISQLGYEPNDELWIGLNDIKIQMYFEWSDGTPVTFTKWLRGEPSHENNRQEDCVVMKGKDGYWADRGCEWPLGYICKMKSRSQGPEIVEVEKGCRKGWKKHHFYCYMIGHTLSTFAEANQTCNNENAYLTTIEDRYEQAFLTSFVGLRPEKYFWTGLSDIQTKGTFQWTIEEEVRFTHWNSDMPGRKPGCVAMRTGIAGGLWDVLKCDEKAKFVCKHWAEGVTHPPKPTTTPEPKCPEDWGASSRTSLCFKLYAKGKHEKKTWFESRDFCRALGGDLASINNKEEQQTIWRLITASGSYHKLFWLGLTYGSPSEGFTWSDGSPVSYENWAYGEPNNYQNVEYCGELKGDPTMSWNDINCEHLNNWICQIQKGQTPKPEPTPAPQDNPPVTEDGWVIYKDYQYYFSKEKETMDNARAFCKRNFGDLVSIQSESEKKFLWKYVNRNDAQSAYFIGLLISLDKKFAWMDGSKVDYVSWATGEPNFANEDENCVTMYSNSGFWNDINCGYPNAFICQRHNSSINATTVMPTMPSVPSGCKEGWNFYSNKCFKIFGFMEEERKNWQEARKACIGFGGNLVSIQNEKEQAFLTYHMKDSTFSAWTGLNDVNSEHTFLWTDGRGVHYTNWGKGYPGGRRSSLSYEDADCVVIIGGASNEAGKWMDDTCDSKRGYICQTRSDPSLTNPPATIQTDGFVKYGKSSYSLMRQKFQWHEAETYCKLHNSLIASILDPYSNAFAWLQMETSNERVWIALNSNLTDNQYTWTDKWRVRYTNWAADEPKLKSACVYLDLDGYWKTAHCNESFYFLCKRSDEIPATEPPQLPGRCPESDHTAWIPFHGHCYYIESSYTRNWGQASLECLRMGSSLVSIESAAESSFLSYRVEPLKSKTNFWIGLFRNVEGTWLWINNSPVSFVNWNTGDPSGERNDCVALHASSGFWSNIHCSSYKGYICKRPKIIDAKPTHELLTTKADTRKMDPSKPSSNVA

similarity score to Metalyse (SPR sensorgram comparison) [1]: 5% and 6% and 9%
similarity score to Metalyse (SPR sensorgram comparison) [2]: 8% and 9% and 10%
similarity score to Metalyse (SPR sensorgram comparison) [3]: 30% and 17% and 25%
similarity score to Metalyse (SPR sensorgram comparison) [4]: 53% and 37% and 46%
Substance: tenecteplase copy Mingfule 16 mg/vial (CSPC Recomgen Pharmaceutical, Guangzhou, Co., Ltd.) (enzyme)
